Test results: the supplement of paper PMC10065799, “High-throughput profiling of sequence recognition by tyrosine kinases and SH2 domains using bacterial peptide display” (eLife, 2023)

Legend:
AncSZ = assay: phosphorylation enrichment, bacterial display (enrichment ratio); higher = better substrate or ligand; peptides without Tyr show the background
EPHB1 = EPHB1 (UniProt P54762); assay: as above
EPHB2 = EPHB2 (UniProt P29323); assay: as above
FGFR1 = FGFR1 (UniProt P11362); assay: as above
FGFR3 = FGFR3 (UniProt P22607); assay: as above
Chain of FGFR3 (P22607 whole entry, looked up): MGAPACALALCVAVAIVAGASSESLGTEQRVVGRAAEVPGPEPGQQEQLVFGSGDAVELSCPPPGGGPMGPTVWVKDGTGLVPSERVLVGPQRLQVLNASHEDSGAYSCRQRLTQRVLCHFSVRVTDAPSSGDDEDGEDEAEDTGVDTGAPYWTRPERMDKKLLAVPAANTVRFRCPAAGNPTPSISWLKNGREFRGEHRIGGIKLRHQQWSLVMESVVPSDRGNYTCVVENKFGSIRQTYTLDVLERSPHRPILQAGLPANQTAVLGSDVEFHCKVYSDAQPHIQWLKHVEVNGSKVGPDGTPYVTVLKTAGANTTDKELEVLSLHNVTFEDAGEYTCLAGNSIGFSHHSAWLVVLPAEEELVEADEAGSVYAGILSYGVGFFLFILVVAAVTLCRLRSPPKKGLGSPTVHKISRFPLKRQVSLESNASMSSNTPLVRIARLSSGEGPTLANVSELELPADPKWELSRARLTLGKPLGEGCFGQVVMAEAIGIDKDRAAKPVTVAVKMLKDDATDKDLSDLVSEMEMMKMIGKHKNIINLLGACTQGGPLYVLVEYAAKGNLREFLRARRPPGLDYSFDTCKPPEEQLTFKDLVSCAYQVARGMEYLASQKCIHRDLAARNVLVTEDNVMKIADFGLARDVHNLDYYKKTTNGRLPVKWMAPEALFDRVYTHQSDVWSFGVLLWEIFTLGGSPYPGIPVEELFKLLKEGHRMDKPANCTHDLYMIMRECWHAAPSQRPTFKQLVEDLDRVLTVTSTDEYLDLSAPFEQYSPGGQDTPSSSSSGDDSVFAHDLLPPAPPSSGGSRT

Fer (mouse) = assay: as above
Fes = Fes (UniProt P07332); assay: as above
Chain of Fes (P07332 whole entry, looked up): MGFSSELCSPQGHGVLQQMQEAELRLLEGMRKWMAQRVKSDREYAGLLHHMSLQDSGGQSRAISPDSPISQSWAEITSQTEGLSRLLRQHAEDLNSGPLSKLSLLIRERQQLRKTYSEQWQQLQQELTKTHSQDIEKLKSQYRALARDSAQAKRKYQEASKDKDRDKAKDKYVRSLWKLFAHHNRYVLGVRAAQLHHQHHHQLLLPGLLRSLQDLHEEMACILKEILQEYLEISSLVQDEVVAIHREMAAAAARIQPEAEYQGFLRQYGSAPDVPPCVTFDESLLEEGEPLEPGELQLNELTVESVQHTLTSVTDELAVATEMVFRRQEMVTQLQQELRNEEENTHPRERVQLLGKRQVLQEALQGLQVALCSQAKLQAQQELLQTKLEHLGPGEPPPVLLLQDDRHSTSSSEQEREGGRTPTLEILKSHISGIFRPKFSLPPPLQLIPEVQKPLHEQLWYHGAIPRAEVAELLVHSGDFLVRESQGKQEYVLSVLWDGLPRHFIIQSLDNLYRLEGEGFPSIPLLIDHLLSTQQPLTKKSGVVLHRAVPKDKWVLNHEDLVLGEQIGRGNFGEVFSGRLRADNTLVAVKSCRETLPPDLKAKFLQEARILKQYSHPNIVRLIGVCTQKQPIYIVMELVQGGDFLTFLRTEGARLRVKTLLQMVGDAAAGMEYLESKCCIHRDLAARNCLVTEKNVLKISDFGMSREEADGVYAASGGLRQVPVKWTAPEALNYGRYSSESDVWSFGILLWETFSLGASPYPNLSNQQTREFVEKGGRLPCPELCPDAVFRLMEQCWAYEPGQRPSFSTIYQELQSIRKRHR

Fyn = Fyn (UniProt P06241); assay: as above
Chain of Fyn (P06241 whole entry, looked up): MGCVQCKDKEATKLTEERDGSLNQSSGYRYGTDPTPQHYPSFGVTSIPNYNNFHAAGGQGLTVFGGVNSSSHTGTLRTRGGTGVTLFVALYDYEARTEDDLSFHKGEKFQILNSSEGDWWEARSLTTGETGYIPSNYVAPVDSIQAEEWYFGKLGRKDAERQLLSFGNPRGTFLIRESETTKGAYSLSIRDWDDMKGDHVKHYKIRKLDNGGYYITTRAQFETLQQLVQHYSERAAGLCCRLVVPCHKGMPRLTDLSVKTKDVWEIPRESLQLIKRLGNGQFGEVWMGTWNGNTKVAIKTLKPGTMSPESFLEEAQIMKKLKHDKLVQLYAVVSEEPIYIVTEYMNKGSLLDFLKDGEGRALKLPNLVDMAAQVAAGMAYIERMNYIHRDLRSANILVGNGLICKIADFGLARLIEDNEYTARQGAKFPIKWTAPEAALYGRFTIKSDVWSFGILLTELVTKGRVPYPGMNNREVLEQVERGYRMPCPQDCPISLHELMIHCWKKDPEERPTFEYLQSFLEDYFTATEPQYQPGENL

Hck = Hck (UniProt P08631); assay: as above
Chain of Hck (P08631 whole entry, looked up): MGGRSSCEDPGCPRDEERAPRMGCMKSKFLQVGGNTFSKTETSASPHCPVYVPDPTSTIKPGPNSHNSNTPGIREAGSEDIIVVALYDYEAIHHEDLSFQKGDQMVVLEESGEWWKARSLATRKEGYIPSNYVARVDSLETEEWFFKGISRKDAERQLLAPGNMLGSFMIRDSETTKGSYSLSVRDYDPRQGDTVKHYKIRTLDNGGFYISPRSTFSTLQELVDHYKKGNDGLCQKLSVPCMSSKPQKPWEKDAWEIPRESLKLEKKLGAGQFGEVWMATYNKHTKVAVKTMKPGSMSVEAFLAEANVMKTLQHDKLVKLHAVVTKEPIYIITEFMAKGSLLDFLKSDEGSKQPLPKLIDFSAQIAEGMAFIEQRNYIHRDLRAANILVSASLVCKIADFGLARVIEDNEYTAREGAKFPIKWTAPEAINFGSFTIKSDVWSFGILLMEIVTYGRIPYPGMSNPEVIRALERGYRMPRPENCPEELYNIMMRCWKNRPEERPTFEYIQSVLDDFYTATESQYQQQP

Jak2 = Jak2 (UniProt O60674); assay: as above
MERTK = MERTK (UniProt Q12866); assay: as above
Chain of MERTK (Q12866 whole entry, looked up): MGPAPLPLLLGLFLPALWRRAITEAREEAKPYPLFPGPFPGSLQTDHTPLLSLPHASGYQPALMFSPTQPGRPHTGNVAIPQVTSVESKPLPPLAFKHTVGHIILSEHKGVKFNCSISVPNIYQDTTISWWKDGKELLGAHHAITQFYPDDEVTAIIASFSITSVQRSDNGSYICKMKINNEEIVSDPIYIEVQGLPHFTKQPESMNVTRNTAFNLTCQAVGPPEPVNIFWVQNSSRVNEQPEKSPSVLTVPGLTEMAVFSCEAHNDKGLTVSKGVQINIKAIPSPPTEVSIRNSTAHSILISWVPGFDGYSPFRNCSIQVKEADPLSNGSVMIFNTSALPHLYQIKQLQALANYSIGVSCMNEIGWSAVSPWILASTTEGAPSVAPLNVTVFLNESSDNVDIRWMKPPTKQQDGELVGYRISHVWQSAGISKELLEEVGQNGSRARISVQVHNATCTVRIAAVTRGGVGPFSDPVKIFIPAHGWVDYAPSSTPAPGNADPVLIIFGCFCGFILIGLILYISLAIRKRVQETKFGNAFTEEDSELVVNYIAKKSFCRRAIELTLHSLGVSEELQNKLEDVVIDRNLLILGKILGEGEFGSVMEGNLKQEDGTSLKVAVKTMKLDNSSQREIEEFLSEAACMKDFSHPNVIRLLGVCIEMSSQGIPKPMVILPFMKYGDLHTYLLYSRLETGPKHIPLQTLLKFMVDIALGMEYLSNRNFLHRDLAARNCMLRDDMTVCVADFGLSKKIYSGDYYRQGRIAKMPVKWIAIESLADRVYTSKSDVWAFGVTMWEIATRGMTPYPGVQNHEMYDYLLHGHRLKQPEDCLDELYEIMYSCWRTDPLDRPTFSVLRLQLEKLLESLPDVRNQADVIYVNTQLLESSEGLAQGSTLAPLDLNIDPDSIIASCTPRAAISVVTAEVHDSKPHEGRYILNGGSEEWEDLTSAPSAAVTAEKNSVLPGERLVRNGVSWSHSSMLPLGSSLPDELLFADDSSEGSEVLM

c-Abl (mouse) = assay: as above
c-Src = assay: as above
Grb2 SH2 = Grb2 SH2 (UniProt P62993); assay: SH2 binding enrichment of the phosphorylated peptide, bacterial display (enrichment ratio); higher = better substrate or ligand; peptides without Tyr show the background
SHP2-C SH2 = assay: as above
c-Src SH2 = assay: as above
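Throughout, for SH2 binding enrichment of the phosphorylated peptide, bacterial display: peptide library displayed on the E. coli surface as eCPX fusions, selected cells deep-sequenced, score is each peptide's frequency after selection divided by its frequency in the input.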
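Throughout, for phosphorylation enrichment, bacterial display: 11-residue human phosphosite peptides and single-mutation variants displayed on the E. coli surface, counted by deep sequencing, each peptide's frequency after selection divided by its frequency in the unselected input library; frequency after pTyr selection over input frequency; kinase dosed for 20-30% of maximal phosphorylation in three min.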

Chain of EPHB2 (P29323 whole entry, looked up): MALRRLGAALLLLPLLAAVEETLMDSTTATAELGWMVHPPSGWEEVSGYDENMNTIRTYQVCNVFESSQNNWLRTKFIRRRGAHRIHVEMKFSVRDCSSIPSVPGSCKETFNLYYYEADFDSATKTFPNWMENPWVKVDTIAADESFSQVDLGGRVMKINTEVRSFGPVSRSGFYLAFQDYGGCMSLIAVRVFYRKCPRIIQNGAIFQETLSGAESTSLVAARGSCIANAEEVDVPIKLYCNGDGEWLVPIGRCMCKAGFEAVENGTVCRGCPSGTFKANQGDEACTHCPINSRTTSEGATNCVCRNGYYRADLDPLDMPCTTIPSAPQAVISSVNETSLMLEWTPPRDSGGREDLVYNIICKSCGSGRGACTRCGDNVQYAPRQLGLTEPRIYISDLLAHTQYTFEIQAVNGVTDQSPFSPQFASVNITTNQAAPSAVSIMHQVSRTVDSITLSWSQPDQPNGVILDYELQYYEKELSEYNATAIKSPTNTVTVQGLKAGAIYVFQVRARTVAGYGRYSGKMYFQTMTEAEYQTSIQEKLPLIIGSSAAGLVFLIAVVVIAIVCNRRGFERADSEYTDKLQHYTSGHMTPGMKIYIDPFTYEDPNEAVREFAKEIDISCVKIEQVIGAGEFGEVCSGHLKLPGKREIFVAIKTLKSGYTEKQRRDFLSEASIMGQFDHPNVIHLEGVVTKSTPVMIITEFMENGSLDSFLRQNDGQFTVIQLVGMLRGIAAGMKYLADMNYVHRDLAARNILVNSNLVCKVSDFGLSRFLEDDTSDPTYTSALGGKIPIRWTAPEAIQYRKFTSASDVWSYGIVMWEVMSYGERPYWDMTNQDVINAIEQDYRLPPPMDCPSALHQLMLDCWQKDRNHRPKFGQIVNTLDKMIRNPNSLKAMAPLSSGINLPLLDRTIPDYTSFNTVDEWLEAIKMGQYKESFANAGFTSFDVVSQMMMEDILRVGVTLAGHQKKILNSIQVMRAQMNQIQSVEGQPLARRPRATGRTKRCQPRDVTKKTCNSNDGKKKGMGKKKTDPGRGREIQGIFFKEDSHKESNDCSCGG

| Sequence | SH2 binding enrichment (Grb2 SH2) | SH2 binding enrichment (SHP2-C SH2) | SH2 binding enrichment (c-Src SH2) | phosphorylation enrichment (AncSZ) | phosphorylation enrichment (EPHB1) | phosphorylation enrichment (EPHB2) | phosphorylation enrichment (FGFR1) | phosphorylation enrichment (FGFR3) | phosphorylation enrichment (Fer (mouse)) | phosphorylation enrichment (Fes) | phosphorylation enrichment (Fyn) | phosphorylation enrichment (Hck) | phosphorylation enrichment (Jak2) | phosphorylation enrichment (MERTK) | phosphorylation enrichment (c-Abl (mouse)) | phosphorylation enrichment (c-Src) |
| --- | --- | --- | --- | --- | --- | --- | --- | --- | --- | --- | --- | --- | --- | --- | --- | --- |
| LLASRYDSPIN [ABLIM1_Y638] | 0.704 | 0.991 | 2.63 | 1.32 | 1.58 | 0.929 | 1.12 | 0.636 | 0.607 | 1.65 | 1.18 | 0.923 | 1.59 | 1.09 | 1.13 | 0.96 |
| LSIDRYHAIVY [NPSR1_Y147] | 1.25 | 1.03 | 5.31 | 0.83 | 0.438 | 0.594 | 3.36 | 1.87 | 0.544 | 1.15 | 0.546 | 0.533 | 1.65 | 0.7 | 0.982 | 0.89 |
| LNEAVYTKMMT [G6PD_Y401_P396L] | 0.659 | 0.414 | 1.61 | 1.9 | 1.76 | 1.8 | 1.38 | 1.29 | 16.1 | 2.05 | 5.35 | 6.11 | 1.15 | 3.19 | 0.881 | 5.76 |
| MCVKSYTIHFS [F5_Y2153_Y2149C_YF] | 0.841 | 0.617 | 0.485 | 1.47 | 0.718 | 0.622 | 0.525 | 1.01 | 0.552 | 1.41 | 0.489 | 0.546 | 1.05 | 0.448 | 1.02 | 0.565 |
| TYVKSYTIHYS [F5_Y2153_M2148T] | 0.791 | 0.783 | 0.652 | 1.27 | 0.594 | 0.722 | 0.4 | 0.696 | 0.568 | 1.15 | 0.508 | 0.567 | 0.633 | 0.483 | 0.625 | 0.44 |
| FSMGCYEISLG [HMGCL_Y198_YF] | 0.641 | 0.785 | 0.505 | 1.93 | 1.03 | 1.01 | 0.652 | 1.05 | 1.68 | 1.47 | 0.993 | 0.836 | 1.6 | 0.866 | 0.965 | 1.64 |
| TAALWYIYSHT [ENG_Y612] | 0.781 | 0.918 | 0.6 | 1.15 | 0.794 | 0.832 | 0.497 | 0.689 | 0.586 | 1.14 | 1.52 | 1.3 | 0.984 | 0.878 | 0.748 | 1.82 |
| MARDISRASYY [ALK_Y1278_Y1278S] | 0.776 | 0.519 | 0.433 | 0.525 | 0.422 | 0.395 | 0.464 | 0.452 | 0.33 | 0.73 | 0.475 | 0.395 | 0.65 | 0.453 | 0.59 | 0.463 |
| PAEPRYRARQR [KCNJ11_Y26] | 0.675 | 0.788 | 0.474 | 1.02 | 0.635 | 0.722 | 0.576 | 0.599 | 0.673 | 0.718 | 0.746 | 0.878 | 1 | 0.929 | 0.737 | 0.958 |
| GRQGIYKENER [GPR143_Y231_T232K] | 0.735 | 0.427 | 0.443 | 0.627 | 0.322 | 0.375 | 0.441 | 0.428 | 0.407 | 0.722 | 0.371 | 0.484 | 0.515 | 0.738 | 0.555 | 0.436 |
| PQEVTYAQLDH [KIR3DL2_Y398] | 0.873 | 8.91 | 1.25 | 2.44 | 1.3 | 1.33 | 3.41 | 2.12 | 3.3 | 2.64 | 9.11 | 10.7 | 2.87 | 3.38 | 4.39 | 13.6 |
| LIDGYYRLTAD [JAK2_Y373] | 0.72 | 9.03 | 4.65 | 2.46 | 1.88 | 2.08 | 11.5 | 5.24 | 1.54 | 2.59 | 1.71 | 1.87 | 10.4 | 0.961 | 1 | 0.899 |
| LTEHGYSFTTT [ACTB_Y198_R196H] | 0.817 | 0.883 | 1.88 | 2.11 | 0.862 | 0.533 | 0.961 | 1.09 | 0.815 | 1.79 | 0.968 | 0.342 | 1.61 | 0.938 | 1.58 | 1.09 |
| KAIMTYVSSFY [ACTN4_Y260] | 0.86 | 0.987 | 0.564 | 0.976 | 0.644 | 0.666 | 0.489 | 0.719 | 0.505 | 1.05 | 0.536 | 0.554 | 1.04 | 0.424 | 0.755 | 0.612 |
| QQTYTYDSGIH [JUP_Y22] | 1 | 0.535 | 0.744 | 1.45 | 1.09 | 1.5 | 1.12 | 1.38 | 0.454 | 1.35 | 1.65 | 1.61 | 1.2 | 3.33 | 0.841 | 1.41 |
| KPGLKYVTYGN [GALNTL5_Y404] | 1.34 | 2.11 | 1.11 | 0.505 | 0.38 | 0.624 | 0.394 | 0.409 | 0.379 | 0.547 | 0.39 | 0.484 | 0.498 | 0.345 | 0.389 | 0.363 |

Now from value to sequence, other results behind:

| SH2 binding enrichment (Grb2 SH2) | SH2 binding enrichment (SHP2-C SH2) | SH2 binding enrichment (c-Src SH2) | Sequence | phosphorylation enrichment (AncSZ) | phosphorylation enrichment (EPHB1) | phosphorylation enrichment (EPHB2) | phosphorylation enrichment (FGFR1) | phosphorylation enrichment (FGFR3) | phosphorylation enrichment (Fer (mouse)) | phosphorylation enrichment (Fes) | phosphorylation enrichment (Fyn) | phosphorylation enrichment (Hck) | phosphorylation enrichment (Jak2) | phosphorylation enrichment (MERTK) | phosphorylation enrichment (c-Abl (mouse)) | phosphorylation enrichment (c-Src) |
| --- | --- | --- | --- | --- | --- | --- | --- | --- | --- | --- | --- | --- | --- | --- | --- | --- |
| 1.01 | 0.876 | 3.56 | TMETKYDNISR [SETDB2_Y477_V473M] | 0.652 | 0.356 | 0.424 | 0.678 | 0.474 | 0.403 | 0.689 | 0.414 | 0.431 | 0.808 | 0.469 | 0.665 | 0.429 |
| 0.837 | 0.665 | 1.72 | DELDKYSEVLK [TPM1_Y60_A63V] | 1.49 | 0.667 | 0.603 | 0.616 | 0.923 | 0.624 | 1.66 | 0.599 | 0.558 | 1.37 | 0.48 | 0.907 | 0.62 |
| 0.624 | 0.684 | 0.429 | GVRLFYRVMES [RB1_Y454_YF] | 1.29 | 0.655 | 0.576 | 0.488 | 0.815 | 0.517 | 1.42 | 0.448 | 0.541 | 1.38 | 0.381 | 0.83 | 0.39 |
| 0.653 | 0.887 | 0.453 | VGGRIYTDDGL [PKLR_Y218_I219T] | 0.768 | 0.412 | 0.592 | 0.427 | 0.612 | 0.463 | 0.921 | 0.427 | 0.426 | 0.595 | 0.37 | 0.629 | 0.306 |
| 0.902 | 0.864 | 0.738 | VFDHIYTTQSD [RET_Y928_L923V] | 0.978 | 0.458 | 0.467 | 0.55 | 0.682 | 0.443 | 0.871 | 2.12 | 1.14 | 0.671 | 0.579 | 0.44 | 2.41 |
| 0.93 | 0.781 | 0.628 | KTGDFYDLFGG [PTPN11_Y63_N58K_YF] | 0.956 | 0.577 | 0.463 | 0.523 | 0.6 | 0.716 | 0.879 | 3.14 | 2.04 | 0.781 | 2.74 | 0.627 | 2.65 |
| 1.11 | 0.822 | 1.42 | PDDPNYSLVDD [PSTPIP2_Y323] | 2.13 | 1.09 | 1.49 | 1.06 | 1.31 | 1.07 | 1.81 | 1.15 | 1.11 | 1.4 | 0.662 | 0.8 | 0.603 |
| 0.979 | 2.29 | 0.726 | IYLGAYDRFLP [SLC22A5_Y486_V481I] | 1.72 | 2.18 | 4.21 | 0.918 | 0.94 | 2.42 | 1.18 | 5 | 6.82 | 1.16 | 6.6 | 2.56 | 5.43 |
| 0.975 | 3.55 | 0.945 | LLKNMYLMLDN [STAT1_Y203_K201N] | 2.85 | 1.34 | 1.02 | 0.868 | 1.65 | 1.02 | 2.63 | 0.593 | 0.921 | 2.77 | 0.745 | 1.7 | 0.933 |
| 0.743 | 0.604 | 0.309 | PLDVEYFTLQI [TP53_Y327_G325V] | 2.47 | 0.804 | 0.659 | 7.84 | 5.88 | 0.578 | 1.46 | 2.35 | 1.2 | 2.69 | 0.55 | 1.11 | 2.72 |
| 0.889 | 0.671 | 0.84 | ILGRYYERGSI [PAX5_Y73_T75R] | 0.449 | 0.493 | 0.531 | 0.466 | 0.552 | 0.474 | 0.726 | 0.498 | 0.495 | 0.563 | 0.408 | 0.519 | 0.401 |
| 0.784 | 0.52 | 1.16 | CVAARYMDVKG [WFIKKN2_Y93] | 0.655 | 0.535 | 0.516 | 0.445 | 0.549 | 0.442 | 0.887 | 0.419 | 0.43 | 0.696 | 0.435 | 0.56 | 0.313 |
| 0.984 | 1.03 | 0.797 | AVISVYDLVVV [PSEN1_Y256_A260V] | 1.54 | 5.61 | 4.03 | 0.726 | 1.02 | 13.3 | 1.46 | 5.2 | 4.14 | 1.29 | 6.78 | 1 | 3.85 |
| 1.79 | 1.96 | 2.25 | CTTIHYNFMCS [TP53_Y234_N239S_YF] | 0.846 | 0.634 | 0.507 | 0.572 | 0.799 | 0.495 | 0.902 | 0.502 | 0.603 | 0.823 | 0.5 | 0.548 | 0.571 |
| 8.42 | 0.571 | 0.516 | EERKTYVNTTL [TEK_Y1102] | 0.83 | 0.526 | 0.519 | 0.464 | 0.586 | 0.551 | 0.977 | 0.45 | 0.48 | 0.983 | 0.498 | 0.779 | 0.446 |
| 0.685 | 0.465 | 0.36 | TSPALYRLDLD [TRIL_Y352_A347T] | 0.943 | 0.567 | 0.51 | 0.529 | 0.721 | 0.499 | 1.24 | 0.74 | 0.817 | 0.859 | 0.395 | 0.741 | 1.44 |
| 0.731 | 0.688 | 0.661 | QNTGVYFDLFG [PTPN11_Y62_D61V_YF] | 2 | 2.93 | 1.33 | 12.8 | 11.6 | 0.831 | 1.52 | 3.82 | 3.34 | 1.95 | 3.19 | 0.912 | 2.02 |
